{"source": "the supplement of paper PMC9112550", "about": "“Optimization of the antimicrobial peptide Bac7 by deep mutational scanning” (BMC Biology, 2022);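 note: peptides expressed intracellularly from a pBAD plasmid library in pooled LB shake-flask culture, induced with 0.3% L-arabinose, DNA abundance read by NGS, three biological replicates, DESeq2 with apeglm shrinkage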", "data": [{"test_system": "Escherichia coli TOP10", "assay": "shrunken log2 fold change of peptide-encoding DNA abundance (4.5 h post-induction vs induction); higher = less antimicrobial activity (less host growth inhibition)", "settings": "time post-induction: 4.5 h; library: site-saturation at positions 5, 18, 19, 20", "values": [{"sequence": "RRIRGRPPRLPRPRPRPQKDPRP", "shrunken log2 fold change": 0.346}, {"sequence": "RRIRQRPPRLPRPRPRPELPPRP", "shrunken log2 fold change": -0.0769}, {"sequence": "RRIRYRPPRLPRPRPRPVYSPRP", "shrunken log2 fold change": 4.05}, {"sequence": "RRIRARPPRLPRPRPRPNHSPRP", "shrunken log2 fold change": -0.55}, {"sequence": "RRIRNRPPRLPRPRPRPMTVPRP", "shrunken log2 fold change": -0.12}, {"sequence": "RRIRKRPPRLPRPRPRPWLMPRP", "shrunken log2 fold change": 0.0931}, {"sequence": "RRIRNRPPRLPRPRPRPHIQPRP", "shrunken log2 fold change": 2.34}, {"sequence": "RRIRSRPPRLPRPRPRPEDSPRP", "shrunken log2 fold change": 0.00839}, {"sequence": "RRIRVRPPRLPRPRPRPTQMPRP", "shrunken log2 fold change": 0.19}, {"sequence": "RRIRFRPPRLPRPRPRPGWRPRP", "shrunken log2 fold change": 0.536}, {"sequence": "RRIRTRPPRLPRPRPRPAYMPRP", "shrunken log2 fold change": -0.384}, {"sequence": "RRIRVRPPRLPRPRPRPKYQPRP", "shrunken log2 fold change": -0.876}, {"sequence": "RRIRGRPPRLPRPRPRPKFLPRP", "shrunken log2 fold change": 0.267}, {"sequence": "RRIRNRPPRLPRPRPRPETDPRP", "shrunken log2 fold change": -0.05}, {"sequence": "RRIRLRPPRLPRPRPRPCIQPRP", "shrunken log2 fold change": -0.675}, {"sequence": "RRIRKRPPRLPRPRPRPILKPRP", "shrunken log2 fold change": 0.117}, {"sequence": "RRIRARPPRLPRPRPRPPGAPRP", "shrunken log2 fold change": 1.11}, {"sequence": "RRIRGRPPRLPRPRPRPLRCPRP", "shrunken log2 fold change": 0.58}, {"sequence": "RRIRERPPRLPRPRPRPYPGPRP", "shrunken log2 fold change": -0.379}, {"sequence": "RRIRARPPRLPRPRPRPEQLPRP", "shrunken log2 fold change": 1.47}, {"sequence": "RRIRRRPPRLPRPRPRPCCLPRP", "shrunken log2 fold change": 0.0396}, {"sequence": "RRIRFRPPRLPRPRPRPCSPPRP", "shrunken log2 fold change": -0.674}, {"sequence": "RRIRARPPRLPRPRPRPTWRPRP", "shrunken log2 fold change": 0.813}, {"sequence": "RRIRKRPPRLPRPRPRPTSPPRP", "shrunken log2 fold change": 0.15}, {"sequence": "RRIRQRPPRLPRPRPRPYLPPRP", "shrunken log2 fold change": -0.0206}, {"sequence": "RRIRDRPPRLPRPRPRPALHPRP", "shrunken log2 fold change": 0.438}, {"sequence": "RRIRERPPRLPRPRPRPDGPPRP", "shrunken log2 fold change": 0.115}, {"sequence": "RRIRRRPPRLPRPRPRPQCKPRP", "shrunken log2 fold change": -0.268}, {"sequence": "RRIRRRPPRLPRPRPRPSTNPRP", "shrunken log2 fold change": -0.0966}, {"sequence": "RRIRHRPPRLPRPRPRPNQFPRP", "shrunken log2 fold change": -0.789}, {"sequence": "RRIRARPPRLPRPRPRPNRVPRP", "shrunken log2 fold change": 0.0397}, {"sequence": "RRIRGRPPRLPRPRPRPFYWPRP", "shrunken log2 fold change": 0.161}, {"sequence": "RRIRSRPPRLPRPRPRPTMDPRP", "shrunken log2 fold change": -0.262}, {"sequence": "RRIRARPPRLPRPRPRPLRRPRP", "shrunken log2 fold change": 1.15}, {"sequence": "RRIRVRPPRLPRPRPRPQYHPRP", "shrunken log2 fold change": -0.648}, {"sequence": "RRIRERPPRLPRPRPRPSVGPRP", "shrunken log2 fold change": 0.0861}, {"sequence": "RRIRRRPPRLPRPRPRPRDEPRP", "shrunken log2 fold change": 0.48}, {"sequence": "RRIRPRPPRLPRPRPRPTQHPRP", "shrunken log2 fold change": 0.262}, {"sequence": "RRIRSRPPRLPRPRPRPEHEPRP", "shrunken log2 fold change": -0.182}, {"sequence": "RRIRYRPPRLPRPRPRPYACPRP", "shrunken log2 fold change": 0.00253}, {"sequence": "RRIRARPPRLPRPRPRPFPTPRP", "shrunken log2 fold change": 0.311}, {"sequence": "RRIRLRPPRLPRPRPRPCHDPRP", "shrunken log2 fold change": -0.116}, {"sequence": "RRIRSRPPRLPRPRPRPEIVPRP", "shrunken log2 fold change": 0.412}, {"sequence": "RRIRPRPPRLPRPRPRPSPFPRP", "shrunken log2 fold change": -0.0752}, {"sequence": "RRIRTRPPRLPRPRPRPKASPRP", "shrunken log2 fold change": -0.0647}, {"sequence": "RRIRRRPPRLPRPRPRPWGPPRP", "shrunken log2 fold change": 0.0858}, {"sequence": "RRIRMRPPRLPRPRPRPWLHPRP", "shrunken log2 fold change": -0.493}, {"sequence": "RRIRHRPPRLPRPRPRPFVRPRP", "shrunken log2 fold change": -0.073}, {"sequence": "RRIRFRPPRLPRPRPRPHTQPRP", "shrunken log2 fold change": -0.225}, {"sequence": "RRIRDRPPRLPRPRPRPRYMPRP", "shrunken log2 fold change": -0.233}, {"sequence": "RRIRMRPPRLPRPRPRPRAEPRP", "shrunken log2 fold change": 1.73}, {"sequence": "RRIRMRPPRLPRPRPRPYDLPRP", "shrunken log2 fold change": -0.242}, {"sequence": "RRIRYRPPRLPRPRPRPPPYPRP", "shrunken log2 fold change": -0.0871}, {"sequence": "RRIRRRPPRLPRPRPRPCIEPRP", "shrunken log2 fold change": 0.131}, {"sequence": "RRIRHRPPRLPRPRPRPSIMPRP", "shrunken log2 fold change": -0.423}, {"sequence": "RRIRFRPPRLPRPRPRPGFLPRP", "shrunken log2 fold change": -0.296}, {"sequence": "RRIRVRPPRLPRPRPRPDPWPRP", "shrunken log2 fold change": 0.131}, {"sequence": "RRIRRRPPRLPRPRPRPLFWPRP", "shrunken log2 fold change": 0.472}, {"sequence": "RRIRWRPPRLPRPRPRPPQKPRP", "shrunken log2 fold change": 0.413}, {"sequence": "RRIRFRPPRLPRPRPRPDVGPRP", "shrunken log2 fold change": -0.239}, {"sequence": "RRIRMRPPRLPRPRPRPGWSPRP", "shrunken log2 fold change": 0.548}, {"sequence": "RRIRLRPPRLPRPRPRPTREPRP", "shrunken log2 fold change": 0.794}, {"sequence": "RRIRPRPPRLPRPRPRPGWYPRP", "shrunken log2 fold change": 0.075}, {"sequence": "RRIRWRPPRLPRPRPRPCSGPRP", "shrunken log2 fold change": -0.0411}, {"sequence": "RRIRARPPRLPRPRPRPVIMPRP", "shrunken log2 fold change": -0.42}, {"sequence": "RRIRDRPPRLPRPRPRPSAYPRP", "shrunken log2 fold change": 0.0641}, {"sequence": "RRIRMRPPRLPRPRPRPDEVPRP", "shrunken log2 fold change": 0.00989}, {"sequence": "RRIRCRPPRLPRPRPRPCHKPRP", "shrunken log2 fold change": -0.0857}, {"sequence": "RRIRSRPPRLPRPRPRPIVGPRP", "shrunken log2 fold change": 0.0247}, {"sequence": "RRIRPRPPRLPRPRPRPCCQPRP", "shrunken log2 fold change": -0.516}, {"sequence": "RRIRERPPRLPRPRPRPNMLPRP", "shrunken log2 fold change": -0.753}, {"sequence": "RRIRFRPPRLPRPRPRPMWSPRP", "shrunken log2 fold change": -0.227}, {"sequence": "RRIRLRPPRLPRPRPRPILAPRP", "shrunken log2 fold change": -0.0814}, {"sequence": "RRIRNRPPRLPRPRPRPATMPRP", "shrunken log2 fold change": -0.1}, {"sequence": "RRIRLRPPRLPRPRPRPSWAPRP", "shrunken log2 fold change": -0.098}]}]}
